Reference: PMC2423479

Molecular target: Pgc ORF1, (His)6-tagged, 71-residue oligopeptide encoded by Drosophila polar granule component (pgc) ORF1 (Drosophila melanogaster)
Assay: SEC; refolded (His)6-tagged Pgc ORF1 on a size-exclusion column; two species migrating at 18 kDa and 36 kDa; dimer to monomers; column and buffer not stated

Pgc ORF1, (His)6-tagged, 71-residue oligopeptide encoded by Drosophila polar granule component (pgc) ORF1 (natural protein)
stoichiometry N: 2
